Results reported in article PMC12432402 (2025).
Ends that are not written are not given here. * marks the point of attachment. FITC = O=C1OC2(c3ccc(O)cc3Oc3cc(O)ccc32)c2ccc(NC(=S)*)cc21

Biological target: ALFA‐tag binder 4A

Kd: 222 µM
Binder: {FITC}-SRLEEELRRRLTE [N‐terminally FITC‐labeled ALFA‐tag]
